The target of assay [1] is Apocalmodulin (Calcium-free Calmodulin) (UniProt P0DP23 2-149). As to the kind of experiment: tryptophane fluorescence, 10 µM peptide, equimolar Apocalmodulin, 1 mM EGTA.
In the next assay the target is Ca2+/Calmodulin (UniProt P0DP23 2-149). As to the kind of experiment: tryptophane fluorescence, 10 µM peptide, equimolar Calmodulin, excess calcium.

Data on 1 molecule can be found in patent publication US20060008800A1 (published 2006).

B1: Munc13-1 peptide reflecting the Calmodulin binding site of rat Munc13-1 (peptide)
peptide: CRAKANWLRAFNKVRMQLQEAR
notes: Synthesized and purified by standard procedures; used at 10 uM in the tryptophane fluorescence assay; also called peptide 13-1; Munc13-1 derived peptide
Consider B1, for which the binding result (in assay [1]; with Ca2+/Calmodulin) was “binds” throughout.
